Results on 30 sequences are retold here after the nanobody polyreactivity screen of Harvey et al. (2022).

The series can be described thus: yeast display, Sf9 membrane polyspecificity reagent, FACS + sequencing; frameworks hold sequencing errors. The essentials: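 Synthetic nanobody libraries on Saccharomyces cerevisiae BJ5465 were galactose-induced for 36–48 hours, stained 1 hour at 4 °C with 10% biotinylated, detergent-solubilized Sf9 membrane reagent and enriched on streptavidin microbeads. FACS then separated cells into low and high (top ~1%) gates by anti-HA (expression) and streptavidin (reagent binding) fluorescence. Genes were colony-PCR amplified, MiSeq 2 × 250 sequenced and CDR-length filtered. A clone's polyreactivity label is that of its gate of origin.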
In the case of “QVQLVESGGGLVQAGGSLRLSCAATGSTFDPNVMGWYRQAPGKEREFVAAISSRSGSTSYADSVKGRFTISRDNAKNTVYLQMNCLKPEVTAVYYCAARVYGLPLRMYSWGQGTQVTLSS”, the “polyreactivity (PSR sort gate)” value is reported as “high polyreactivity”. Regarding “QVQLVESGGGLVQAGGSLRLSCAATGSTFFIYAMGWYRQAPGKERELVAAISGSGGTTYYADSVKGRFTISRDNAKNTVYLHMNSLKPEDTAVYYGAARTFSAFWRGGYDYWGQGTQVTVSS”, the “polyreactivity (PSR sort gate)” value is given as “low polyreactivity”.

Consider “QVQLVESGGGLVQAGGSLRLSCAATGSTIEANTMGWYRQAPGKERELVASITTSGGSTNYADSVKGRFTISRDNAKNTVYLQMNSLKPEDTAVYYCAVRSTYARWNWRTADSSRDYWGQGTQVTVSS”, for which the “polyreactivity (PSR sort gate)” value is “low polyreactivity”. On to “QVQLVESGGGLVQAGGSLRLSCAATGSTIRSYGMGWYRQAPGKERELVASISWSGGSTYYADSVKGRFTISRDNAKNTVYLQMNSLKPEDTAVYYCAAGTLYSLYFGRHGYWGQGTQVTVSS”, for which the “polyreactivity (PSR sort gate)” value is “low polyreactivity”. Turning to “QVQLVESGGGLVQAGGSLRLSCAATGSTSGKNAMGWYRQAPAKERELFAAIRNSGGTTYYADSVKGRFTISRDNAKNTVYLQMNSLKPEDTAVYYCATRYYLNFLDGYNYWGQGTQVTVSS”, the “polyreactivity (PSR sort gate)” value is on record as “high polyreactivity”. On to “QVQLVESGGGLVQAGGSLRLSCAATGYIIQHYAMGWYRQSAGKERELVAAITSGGSTTYADSVKWRFTISRDNAKNTVFLQMNSLKPEDSAVYYCKALRRDRYTRKGYEYWGQGTQVTVSS”, for which the “polyreactivity (PSR sort gate)” value is given as “high polyreactivity”. “QVQLVESGGGLVQAGGSLRLSCAAYGFIFPGNAMGWYIQAPGKERELVAAISNSGSRTYYADSVKGRFTISRDNAKNTVYLQMNSLKPEDTAVYYCNADVHNRGWPYDYWGQGTQVTVSS”: the “polyreactivity (PSR sort gate)” value is “low polyreactivity”. As for “QVQLVESGGGLVQAGGSLRLSCAAYGFTFYLNAMGWYRPAPGKERELVAAISYSDGSTYYADSVKGRFTISRDNAKNTVYLQMTSLKPEDTAVYYCAADTTDPGGAYQLMDYWGQGTQVSVSS”, the entry is “low polyreactivity”; as for “QVQLVESGGGLVQAGGSLRLSCAAYGGFFWYYTMGRYRQAPGKEREFVATITKRGGRTYYADSVKGRFTISRDNAKITVYLQMNSLKPEDTAVYFCNALGGPKSVRFDYWGQGTQVTVSS”, “high polyreactivity”. As for “QVQLVESGGGLVQAGGSLRLSCAAYGGIFGRYAMGWYRQAPGKERELVAAISKRGGSTYYADSVKGRVTISRDNAKNTVYLQMNSLKPEETAVYYCNAAQSVELGYDYCGQGTQVTVSS”, the entry is “high polyreactivity”; as for “QVQLVESGGGLVQAGGSLRLSCAAYGGTFPAYTMGWYRQAPGKERELVAAITWSGGNTYYADSVKGRFTISRDNAKNTVYLQMNSLKPQDTAVYYCAAEYWQYQWSVRIDYEYWGQGTQVNVSS”, “high polyreactivity”; as for “QVQLVESGGGLVQAGGSLRLSCAAYGGTFYRYAMGWYRQAPGKERELVAVISKRGGTTYYADSVKGRFTISRDNAKNTVYLQMNSLKPEDTAVYYCADRPYYWGQGTQVTVSS”, “high polyreactivity”. Turning to “QVQLVESGGGLVQAGGSLRLSCAAYGGTLPVNAMGWYRQAPVKERELVAAITTGTSTNYADSVKGRFTISRDNAKNTVYLQMNSLKPEDNAVYYCAKDQADFAYGYWGEGTQVTVSS”, the “polyreactivity (PSR sort gate)” value is “low polyreactivity”.

On to “QVQLVESGGGLVQAGGSLRLSCAAYGIIFTDYAMGWYRQAPGKERELVAANSSGGGSTYYADSVKGRFTISRDNAKNTVYLQMNSLKPEDTAVYYFAAQSSGSYGFDHWGQGTQVTVSS”, for which the “polyreactivity (PSR sort gate)” value was “high polyreactivity”.

On to “QVQLVESGGGLVQAGGSLRLSCAAYGLTFGYYVMGSYRQAPGKERELVADINFSGGSTYYADSVKGRFTISRDNAKNTVYLHMNSLKTEDTAVYYCNAVVYRFTVSSGYESWGEGTQVTVSS”, for which the “polyreactivity (PSR sort gate)” value is “low polyreactivity”. As to “QVQLVESGGGLVQAGGSLRLSCAAYGLTFHYYDMGWYRQAPGKERELVAAISAGGVNTYYADSVKGRFTISRDNAKNTVYLQMNSLKPEDTAVYFCAADYYVDVWSYTYGYWGQGTQVTVSS”, the “polyreactivity (PSR sort gate)” value is recorded as “high polyreactivity”. Take “QVQLVESGGGLVQAGGSLRLSCAAYGLTFYFYAMGWYRQAPGKERELVAAIDWGGGSTYYADSVKGRFTISRDNAKNTVYLQMNSLKPEDTAVYYCAARGYYYNYDVNYWGQGTQVTVSS”: the “polyreactivity (PSR sort gate)” value was “low polyreactivity”. With “QVQLVESGGGLVQAGGSLRLSCAAYGRIFNEYAMGWYRQAPGKERELVAAITYSDDSTYYADSVKGRFTISRDNAKNTVYLQMISLKPEDTAVYYRNADTPVWDGHAYPVDYWGQGTQVTVSS”, the “polyreactivity (PSR sort gate)” value is given as “low polyreactivity”. For the sequence “QVQLVESGGGLVQAGGSLRLSCAAYGRIFRGYAMGRYRQAPGKEREFVAAITKNGGSTYYADSVKGRFTISRDNAKNTVYLQMNSLKPEDTAVYYCAVRALDPYTGKSDYWGQGTQVTVSS”, the “polyreactivity (PSR sort gate)” value is recorded as “low polyreactivity”. As for “QVQLVESGGGLVQAGGSLRLSCAAYGRIFVFYDMGWYRQAPGKDRELVATISFRGGSTYYADSVKGRFTISRDNAKNTVYLQMNCLKPEDTAVYYCAKENKRGYSTSGYYYWGQGTQVTVSS”, the “polyreactivity (PSR sort gate)” value is “low polyreactivity”. In the case of “QVQLVESGGGLVQAGGSLRLSCAAYGRISAMGWYRQAPGKERELVAAISRGGSTYYADSVKGRFTISRDNAKNTVYLQMNSLKPEDTAVYYCARRYASTGYDYWGQGTQVTVSS”, the “polyreactivity (PSR sort gate)” value is listed as “high polyreactivity”.

Take “QVQLVESGGGLVQAGGSLRLSCAAYGRTFGPNVMGWYRQAPGKERELVAVITSSGGRTYYADSVKGRFTISRDNAKNTVFLQMNSLKPEDTAVYSCAADAKKFVGTKNAEHVYWGQGTQVTVSS”: the “polyreactivity (PSR sort gate)” value is on record as “low polyreactivity”.

For the sequence “QVQLVESGGGLVQAGGSLRLSCAAYGRTFSWNAMGWYRQAPGKERELVAGITGRGRSTYYADSVKGRFTISRDNAKNTVYLQMIRLKPEDTAVYYCAARNWQALYYGYGYDYWGHGTQVTVSS”, the “polyreactivity (PSR sort gate)” value is recorded as “high polyreactivity”. On to “QVQLVESGGGLVQAGGSLRLSCAAYGRTIFFNAMGWYIQAPGKERELVAAISRGGSRTFYADSVKGRFTISRDNAKNTVYFQMNSLKPEDPAVYYCNAVAQSGRYDYWGQGTQVTVPS”, for which the “polyreactivity (PSR sort gate)” value is on record as “high polyreactivity”. On to “QVQLVESGGGLVQAGGSLRLSCAAYGSIFGYYAMGWYRQAPVKERALVAAITWSGDSTYYADSVKGRFTISRDNAKNTVYLQMKSLNPEDTAVYYCSARQFVHTRYFSFGYWGQGTQVTVSS”, for which the “polyreactivity (PSR sort gate)” value is reported as “low polyreactivity”. As for “QVQLVESGGGLVQAGGSLRLSCAAYGSIFHVYAMGWYRQAPGKERELVAAIDRSGGSTYYADSVKGRFTISRDNAKNTVYLQMNSLKPEDTSVYYCAKDVLGGQITDGVGNDYWGQGTQVTLSS”, the entry is “low polyreactivity”. As for “QVQLVESGGGLVQAGGSLRLSCAAYGSIFLYYTMGRYRQAPGKERELVAAISRSGGSTYYADSEKGRFTISRDNALNTVYLQMNSLKPEDTAVYFCGSRSGYIYEYWGQGTQVTVSS”, the “polyreactivity (PSR sort gate)” value is “high polyreactivity”. On to “QVQLVESGGGLVQAGGSLRLSCAAYGSIFRVYAMGWYREAAGKERELVATISWSAGSTYYADSVKGRFTISRDNAKNTVYLQMNSLKPEDTAVYYCAADPVGYYDPSDYWGQGTQVTVSS”, for which the “polyreactivity (PSR sort gate)” value is “low polyreactivity”. On to “QVQLVESGGGLVQAGGSLRLSCAAYGSIFSYNAMGWYRPAPGKERELVAAITKSGGRTYYADSVKGRFTISRANAKNTVYLQMNSLKPEDTAVYYCNARSGSQYDYWGQGTQVTVSS”, for which the “polyreactivity (PSR sort gate)” value is listed as “high polyreactivity”. As for “QVQLVESGGGLVQAGGSLRLSCAAYGSIFTGNTMGWYRQATGKERELVATISRRGGSTYYADSVKGRFTISRDNAKNTVYLQMNSLKPEDTAVYYCARGTVYLTWRNDYWGQGTQVTVSS”, the entry is “high polyreactivity”.
